Data published in publication PMC9126950.
“And” between values parts separate entries of the source, which are not always exact repeats. Equal values may be shown once.

Biological target: VHH-72-C13 (llama)
Assay: electrochemical titration (differential pulse voltammetry)

VHH-72-C13 (llama), sequence (VHH, as listed by the source): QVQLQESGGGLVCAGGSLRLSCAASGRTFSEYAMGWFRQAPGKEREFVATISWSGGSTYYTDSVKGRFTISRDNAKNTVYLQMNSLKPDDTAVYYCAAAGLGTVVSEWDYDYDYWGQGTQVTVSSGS

With “SARS-CoV-2 spike receptor binding domain (RBD), recombinant (from UniProt P0DTC2 319-541) (domain or fragment)” the half saturation point (Langmuir isotherm) was 3.7 nM and 7.5 nM.
